We go through one molecule from article PMC3874162 (Nucleic Acids Research, 2013).

Where a chain is given by its changes, count along the chain named.

The target of one data set is T1, Cdc13-Y561A (Saccharomyces cerevisiae, UniProt P32797 1-924, Y561A).
T1 sequence: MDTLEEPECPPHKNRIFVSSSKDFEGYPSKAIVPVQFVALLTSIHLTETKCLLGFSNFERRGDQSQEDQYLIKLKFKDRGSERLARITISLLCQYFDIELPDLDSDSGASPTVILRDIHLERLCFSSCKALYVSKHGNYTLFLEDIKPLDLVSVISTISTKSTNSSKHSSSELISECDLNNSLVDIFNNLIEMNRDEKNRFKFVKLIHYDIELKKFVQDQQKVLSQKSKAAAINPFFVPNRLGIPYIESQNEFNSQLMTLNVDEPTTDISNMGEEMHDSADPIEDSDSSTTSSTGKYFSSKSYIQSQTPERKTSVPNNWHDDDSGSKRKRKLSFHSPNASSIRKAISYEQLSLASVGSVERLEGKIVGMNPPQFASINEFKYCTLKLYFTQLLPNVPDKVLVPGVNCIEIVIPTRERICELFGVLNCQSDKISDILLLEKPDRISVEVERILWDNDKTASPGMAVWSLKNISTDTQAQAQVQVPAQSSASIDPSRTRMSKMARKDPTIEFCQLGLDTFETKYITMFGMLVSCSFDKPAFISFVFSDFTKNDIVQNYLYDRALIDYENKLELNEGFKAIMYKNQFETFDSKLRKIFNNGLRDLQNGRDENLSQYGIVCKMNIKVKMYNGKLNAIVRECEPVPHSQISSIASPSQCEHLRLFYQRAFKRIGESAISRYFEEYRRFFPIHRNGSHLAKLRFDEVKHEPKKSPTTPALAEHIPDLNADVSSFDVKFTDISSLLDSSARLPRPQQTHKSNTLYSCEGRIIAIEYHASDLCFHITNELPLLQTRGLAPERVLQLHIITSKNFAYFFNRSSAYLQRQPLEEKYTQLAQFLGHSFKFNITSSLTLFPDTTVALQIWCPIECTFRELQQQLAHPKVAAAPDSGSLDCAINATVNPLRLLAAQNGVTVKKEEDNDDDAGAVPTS
Nature of the data set: EMSA. A general note: Mobility shift assays separate free from complexed probe on a gel.

The next data set addresses T2, Cdc13-L91R (Saccharomyces cerevisiae, UniProt P32797 1-924, L91R).
T2 sequence: T1 sequence with L91R, A561Y
Nature of the data set: EMSA.

B1: Tel11 (ssDNA)
DNA: GTGTGGGTGTG
A word on the Kd: it is the equilibrium constant for the complex coming apart. A lower Kd goes with a tighter complex. For the molecule B1, the results for the dissociation constant (Kd) with Cdc13-Y561A and with Cdc13-L91R were 0.017 ± 0.001 nM and 0.005 ± 0.0006 nM, respectively.
